# Results taken from patent publication US20080318297A1, “Inhibition of Infiltration, and Cell Killing Agent” (priority 2004, published 2008).
# How the values were obtained:
# sialyl Lewis x = test: Sialyl Lewis x expression in NALL1 cells by flow cytometer (CSLEX1 antibody); assay type: cell-based, human
# Source text: Fluorescence intensity and distribution of cell count of a sialyl Lewis x sugar chain antigen which is a major selectin ligand sugar chain were confirmed in flow cytometer by using a CSLEX antibody (antibody specifically recognizing the sialyl Lewis x structure; product of Becton, Dickinson and Company) to which a tandem dye APC-Cy7 was bound in accordance with a method described in J. Biol. Chem., 273, 41, 26779-26789 (1998). Rightward shifting in the histogram means an increase in the fluorescence intensity, i.e. an amount of expression of sialyl Lewis x.
# These siRNAs were expressed in cells to confirm the effects. For introduction of siRNA into cells, a lentivirus system (product of Invitrogen Corporation) which is able to gene introduction into blood cells at high efficiency and an expression vector for lentivirus pLL3.7 (Nat. Genet., 33, 401-406 (2003)) were used. In the pLL3.7 vector, it is possible to introduce a sense/antisense siRNA sequence including a hair-pin structure downstream of a U6 promoter. […] Therefore, expression of the CD43 antigen and sialyl Lewis x and the selectin binding ability of the cells in which the GFP expression was observed, i.e. of the cells in which siRNA was expressed, were analyzed by using the antibody MEM59 (product of Monosan) for CD43, sialyl Lewis x antibody CSLEX1, and human chimera-Fc-Ig-E- or P-selectin with the use of a flow cytometer. […]
# P-selectin = P-selectin binding ability of NALL1 cells by flow cytometer (human chimera-Fc-Ig-P-selectin); assay type: cell-based
# Source text: (§1) Likewise, a binding ability to E-selectin and P-selectin was confirmed in flow cytometer through fluorescence intensity and distribution of cell count measured by using a recombinant protein (human chimera-Fc-Ig-E-selectin or human chimera-Fc-Ig-P-selectin; product of R & D Systems) in accordance with the method descried in Blood, 104, 3091-3096 (2004). […] Rightward shifting in the histogram means an increase in the fluorescence intensity, i.e. binding ability to selectin.
# (§2) These siRNAs were expressed in cells to confirm the effects. […] Therefore, expression of the CD43 antigen and sialyl Lewis x and the selectin binding ability of the cells in which the GFP expression was observed, i.e. of the cells in which siRNA was expressed, were analyzed by using the antibody MEM59 (product of Monosan) for CD43, sialyl Lewis x antibody CSLEX1, and human chimera-Fc-Ig-E- or P-selectin with the use of a flow cytometer. […]
# (§3) Benzyl-α-N-acetylgalactosamine (Bz-α-GalNAc; product of Sigma-Aldrich Japan, K.K.) which is one of sugar chain synthesis inhibiting agents was added to a culture supernatant of NALL1 cells to detect its binding ability to selectin. […] After adding 4 mM of benzyl-α-N-acetylgalactosamine to the culture supernatant of NALL1 cells, expressions of the CD43 antigen and sialyl Lewis x and binding ability to E- and P-selectin were detected by a flow cytometer after 3 day-culture. […]
# E-selectin = E-selectin binding ability of NALL1 cells by flow cytometer (human chimera-Fc-Ig-E-selectin); assay type: cell-based
# Source text: as §1, §2, §3
# CD43 antigen = CD43 antigen expression in NALL1 cells by flow cytometer (MEM59 antibody); assay type: cell-based, human; conditions: for CD43 expression: siRNA introduced by lentivirus pLL3.7 vector, GFP positive fraction, vs vacant vector
# Source text: These siRNAs were expressed in cells to confirm the effects. For introduction of siRNA into cells, a lentivirus system (product of Invitrogen Corporation) which is able to gene introduction into blood cells at high efficiency and an expression vector for lentivirus pLL3.7 (Nat. Genet., 33, 401-406 (2003)) were used. In the pLL3.7 vector, it is possible to introduce a sense/antisense siRNA sequence including a hair-pin structure downstream of a U6 promoter. The pLL3.7 vector expresses Green Fluorescent Protein (GFP) by a CMV promoter at the same time. Accordingly, oligonucleotide including the sense chain, antisense chain, and hair-pin structure of the designed siRNA sequence (CD43-#1 to #5, CD43-$1 to $5; alphabet f at the end of the name indicates the sense chain, and r indicates the antisense chain) was chemically synthesized and then cloned to pLL3.7 vector, followed by introduction into 293 cells together with a vector for virus particle production. After that, siRNA expression lentivirus vector was collected from a supernatant of the culture medium (FIG. 8). Virus infection was caused by co-culture of the virus particles and NALL1 cells to introduce the siRNA into the cells and the siRNA is expressed. GFP was simultaneously expressed in the cells into which the siRNA was introduced by the pLL3.7 vector. Therefore, expression of the CD43 antigen and sialyl Lewis x and the selectin binding ability of the cells in which the GFP expression was observed, i.e. of the cells in which siRNA was expressed, were analyzed by using the antibody MEM59 (product of Monosan) for CD43, sialyl Lewis x antibody CSLEX1, and human chimera-Fc-Ig-E- or P-selectin with the use of a flow cytometer. As a result, in introduction of vacant vector (pLL3.7), a high rate of the CD43 expression was observed irrelevant from GFP positive or negative.
# Benzyl-α-N-acetylgalactosamine (Bz-α-GalNAc; product of Sigma-Aldrich Japan, K.K.) which is one of sugar chain synthesis inhibiting agents was added to a culture supernatant of NALL1 cells to detect its binding ability to selectin. Benzyl-α-N-acetylgalactosamine is subject to sugar chain modification like N-acetylgalactosamine added to serine and threonine of a protein when taken into a cell. Therefore, since the original sugar chain modification to a glycoprotein is suppressed by an addition of an excessive amount of benzyl-α-N-acetylgalactosamine, benzyl-α-N-acetylgalactosamine is used as an O-linked sugar chain synthesis inhibiting agent. After adding 4 mM of benzyl-α-N-acetylgalactosamine to the culture supernatant of NALL1 cells, expressions of the CD43 antigen and sialyl Lewis x and binding ability to E- and P-selectin were detected by a flow cytometer after 3 day-culture. […]
# [1] = siRNA introduced by lentivirus pLL3.7 vector (FIG. 10)
molecule,measurement,setting,value
"CC(=O)N[C@H]1[C@@H](OCc2ccccc2)O[C@H](CO)[C@H](O)[C@@H]1O [benzyl-α-N-acetylgalactosamine, Benzyl-α-N-acetylgalactosamine, reference compound]",sialyl Lewis x expression,"sialyl Lewis x; 4 mM, 3 day-culture",remarkably reduced
same,selectin binding ability (P-selectin),"P-selectin; 4 mM, 3 day-culture",almost lost
same,selectin binding ability (E-selectin),"E-selectin; 4 mM, 3 day-culture",almost lost
same,expression of CD43 antigen,"CD43 antigen; 4 mM, 3 day-culture",no change
"siCD43-#1-pLL3.7: siRNA for CD43 antigen in pLL3.7 lentivirus vector; CD43 sequence gtgaccctaaggccgacag (nucleic acid, shRNA oligos cloned in pLL3.7 lentivector) sense: TGTGACCCTAAGGCCGACAGTTCAAGAGACTGTCGGCCTTAGGGTCACTTTTTTC antisense: TCGAGAAAAAAGTGACCCTAAGGCCGACAGTCTCTTGAACTGTCGGCCTTAGGGTCACA",CD43 expression,CD43 antigen,significant reduction
"siCD43-#5-pLL3.7: siRNA for CD43 antigen in pLL3.7 lentivirus vector; CD43 sequence gcgtaacggggtggtggac (nucleic acid, shRNA oligos cloned in pLL3.7 lentivector) sense: TGCGTAACGGGGTGGTGGACTTCAAGAGAGTCCACCACCCCGTTACGCTTTTTTC antisense: TCGAGAAAAAAGCGTAACGGGGTGGTGGACTCTCTTGAAGTCCACCACCCCGTTACGCA",CD43 expression,CD43 antigen,significant reduction
"siCD43-#2-pLL3.7: siRNA for CD43 antigen in pLL3.7 lentivirus vector; CD43 sequence ggccgacagcactggggac (nucleic acid, shRNA oligos cloned in pLL3.7 lentivector) sense: TGGCCGACAGCACTGGGGACTTCAAGAGAGTCCCCAGTGCTGTCGGCCTTTTTTC antisense: TCGAGAAAAAAGGCCGACAGCACTGGGGACTCTCTTGAAGTCCCCAGTGCTGTCGGCCA",sialyl Lewis x expression,sialyl Lewis x; [1],remarkable reductions
same,selectin binding ability (P-selectin),P-selectin; [1],remarkable reductions
same,selectin binding ability (E-selectin),E-selectin; [1],remarkable reductions
same,CD43 expression,CD43 antigen,significant reduction
